Data set [1] relates to VchCAST RNA-guided transposition machinery (E. coli BL21(DE3) host, lacZ target). In words: relative integration efficiency (T-RL orientation) vs wild-type transposon end (log2 (normalized fold change)); transposon end mutated: right end (5 bp flank + 75 bp right end); higher = more efficient transposition. Summed up:
(§1)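 Barcode abundances in input plasmids and in genomic integration junctions were obtained by PCR amplification and Illumina sequencing. These came from E. coli BL21(DE3) co-transformed with a T7-driven effector plasmid and a pUC57 donor carrying 1549 left-end or 1849 right-end transposon variants, then plated with 0.1 mM IPTG at 37°C for 18 h. Relative integration efficiency is the output/input fold change, normalised to reference barcodes and log-transformed.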

Data set [2] shares this test system. Put plainly: relative integration efficiency (T-LR orientation) vs wild-type transposon end (log2 (normalized fold change)); transposon end mutated: right end (5 bp flank + 75 bp right end); higher = more efficient transposition. Summed up: as §1

± gives the standard deviation of the averaged measurements.

Consider “ACATTTGTTGATACAACAATAAAATGATAATTACACCAATAAATTGATAATTATCACACCAATAAATTGATATTGCCTCTGATCATAGTCAGACCAACATTGCTACGACCCGTATTCGCACCGACAC”, for which the “relative integration efficiency (log2)” value is -0.726 ± 0.084 in data set [1] and -0.547 ± 0.67 in data set [2].
Consider “ACATTTGTTGATACAACACGCAAATGATAATTACACCCATAAATTGATAATTATCACACCCATAAATTGATATTGCCTCTGATCATAGTCAGACCAACATTGCTACGACCCGTATTCGCACCGACAC”, for which the “relative integration efficiency (log2)” value in data set [1] is -4.368 ± 0.0069; in data set [2] it was -4.89 ± 2.5.
For “ACATTTGTTGATACAACACTAAAATGATAATTACACCCATAAATTGATAATTATCACACCCATAAATTGATATTGCCTCTGATCATAGTCAGACCAACATTGCTACGACCCGTATTCGCACCGACAC”, in that order: -1.85 ± 0.15 and -2.04 ± 0.74.
“ACATTTGTTGATACAACCAAAAAATGATAATTACACCCAAAAATTGATAATTATCACACCCAAAAATTGATATTGCCTCTGATCATAGTCAGACCAACATTGCTACGACCCGTATTCGCACCGACAC”: the “relative integration efficiency (log2)” value is -0.669 ± 0.11 in data set [1] and 0.0409 ± 0.087 in data set [2].
The like results for “ACATTTGTTGATACAACCAAAAAATGATAATTACACCCATAAATTGATAATAATGACACCGAATTTAACTATAACGCTCTGATCATAGTCAGACCAACATTGCTACGACCCGTATTCGCACCGACAC” were, in that order, -1.3 ± 0.18 and 2.17 ± 0.081.
In the case of “ACATTTGTTGATACAACCAAAAAATGATAATTACACCCATAAATTGATAATGATGACACCGAATTTAACTATAACGCTCTGATCATAGTCAGACCAACATTGCTACGACCCGTATTCGCACCGACAC”, the “relative integration efficiency (log2)” value in data set [1] is -1.42 ± 0.27; in data set [2], 2.11 ± 0.27.
Take “ACATTTGTTGATACAACCAAAAAATGATAATTACACCCATAAATTGATAATTGTGACACCGAATTTAACTATAACGCTCTGATCATAGTCAGACCAACATTGCTACGACCCGTATTCGCACCGACAC”: the figures for the “relative integration efficiency (log2)” value in data set [1] and in data set [2] were -1.12 ± 0.18 and 2.44 ± 0.069, respectively.
On to “ACATTTGTTGATACAACCAATAAAAGATAATTACACCCATAAATTGATAATTGTGACACCGAATTTAACTATAACGCTCTGATCATAGTCAGACCAACATTGCTACGACCCGTATTCGCACCGACAC”, for which the results for the “relative integration efficiency (log2)” value in data set [1] and in data set [2] were -2 ± 0.21 and 1.26 ± 0.029, respectively.
For “ACATTTGTTGATACAACCAATAAAAGATTAATACCCCCATTAATTGATAATTGTGACACCGAATTTAACTATAACGCTCTGATCATAGTCAGACCAACATTGCTACGACCCGTATTCGCACCGACAC”, in that order: -5.12 ± 0.085 and -2.97 ± 0.16.
“ACATTTGTTGATACAACCAATAAAAGATTATTACCCCCATTAATTGATAATGATGACACCGAATTTAACTATAACGCTCTGATCATAGTCAGACCAACATTGCTACGACCCGTATTCGCACCGACAC”: the results for the “relative integration efficiency (log2)” value in data set [1] and in data set [2] were -4.62 ± 0.48 and -1.84 ± 0.29, respectively.
For the sequence “ACATTTGTTGATACAACCAATAAATGATAAATACACCCATAAATTGATAATGATGACACCGAATTTAACTATAACGCTCTGATCATAGTCAGACCAACATTGCTACGACCCGTATTCGCACCGACAC”, the “relative integration efficiency (log2)” value is -1.58 ± 0.26 in data set [1] and 1.75 ± 0.069 in data set [2].
Take “ACATTTGTTGATACAACCAATAAATGATAATTACACCCATAAATTGATAATAATGACACCGAATTTAACTATAACGCTCTGATCATAGTCAGACCAACATTGCTACGACCCGTATTCGCACCGACAC”: the “relative integration efficiency (log2)” value in data set [1] was -1.44 ± 0.28; in data set [2] it was 2.08 ± 0.21.
In the case of “ACATTTGTTGATACAACCAATAAATGATAATTACACCCATAAATTGATAATGATGACACCGAATTTAACTATAACGCTCTGATCATAGTCAGACCAACATTGCTACGACCCGTATTCGCACCGACAC”, the “relative integration efficiency (log2)” value in data set [1] is -1.56 ± 0.22; in data set [2], 1.92 ± 0.035.
For “ACATTTGTTGATACAACCAATAAATGATAATTACACCCATAAATTGATAATTATCACACCCATAAATTGATATTGCCTCTGATCATAGTCAGACCAACATTGCTACGACCCGTATTCGCACCGACAC”, in that order: -0.395 ± 0.089 and -0.407 ± 0.67.
As for “ACATTTGTTGATACAACCAATAAATGATAATTACACCCATAAATTGATAATTGTGACACCGAATTTAACTATAACGCTCTGATCATAGTCAGACCAACATTGCTACGACCCGTATTCGCACCGACAC”, the “relative integration efficiency (log2)” value in data set [1] is -1.29 ± 0.29; in data set [2], 2.09 ± 0.064.
The like results for “ACATTTGTTGATACAACCAATAAATGATAATTACACCCATTAATTGATAATAATGACACCGAATTTAACTATAACGCTCTGATCATAGTCAGACCAACATTGCTACGACCCGTATTCGCACCGACAC” were, in that order, -1.48 ± 0.29 and 1.91 ± 0.054.

Source of the values: the supplement of paper PMC10201428.
